First the molecules themselves.
B1: FLAG-HsCdt1 (natural protein, human, UniProt Q9H211 1-546, looked up)
chain: MEQRRVTDFFARRRPGPPRIAPPKLACRTPSPARPALRAPASATSGSRKRARPPAAPGRDQARPPARRRLRLSVDEVSSPSTPEAPDIPACPSPGQKIKKSTPAAGQPPHLTSAQDQDTISELASCLQRARELGARVRALKASAQDAGESCTPEAEGRPEEPCGEKAPAYQRFHALAQPGLPGLVLPYKYQVLAEMFRSMDTIVGMLHNRSETPTFAKVQRGVQDMMRRRFEECNVGQIKTVYPASYRFRQERSVPTFKDGTRRSDYQLTIEPLLEQEADGAAPQLTASRLLQRRQIFSQKLVEHVKEHHKAFLASLSPAMVVPEDQLTRWHPRFNVDEVPDIEPAALPQPPATEKLTTAQEVLARARNLISPRMEKALSQLALRSAAPSSPGSPRPALPATPPATPPAASPSALKGVSQDLLERIRAKEAQKQLAQMTRCPEQEQRLQRLERLPELARVLRSVFVSERKPALSMEVACARMVGSCCTIMSPGEMEKHLLLLSELLPDWLSLHRIRTDTYVKLDKAADLAHITARLAHQTRAEEGL
notes: human Cdt1; also called human Cdt1; source: Sf9, baculovirus; purified (anti-FLAG M2 agarose, FLAG peptide elution); also in Sf9 lysate; not shown: FLAG, N-terminal, kept
B2: FLAG-HsGeminin-His6 (wild type) (natural protein, human, UniProt O75496 1-209, looked up)
chain: MNPSMKQKQEEIKENIKNSSVPRRTLKMIQPSASGSLVGRENELSAGLSKRKHRNDHLTSTTSSPGVIVPESSENKNLGGVTQESFDLMIKENPSSQYWKEVAEKRRKALYEALKENEKLHKEIEQKDNEIARLKKENKELAEVAEHVQYMAELIERLNGEPLDNFESLDNQEFDSEEETVEDSLVEDSEIGTCAEGTVSSSTDAKPCI
notes: also called wild-type HsGeminin; wt; source: Sf9, baculovirus; purified (Ni-NTA, then anti-FLAG M2 agarose); also in Sf9 lysate; not shown: FLAG, N-terminal, kept; His6, C-terminal, kept
B3: Myc-HsCdc6 (natural protein, human, UniProt Q99741 1-560, looked up)
chain: MPQTRSQAQATISFPKRKLSRALNKAKNSSDAKLEPTNVQTVTCSPRVKALPLSPRKRLGDDNLCNTPHLPPCSPPKQGKKENGPPHSHTLKGRRLVFDNQLTIKSPSKRELAKVHQNKILSSVRKSQEITTNSEQRCPLKKESACVRLFKQEGTCYQQAKLVLNTAVPDRLPAREREMDVIRNFLREHICGKKAGSLYLSGAPGTGKTACLSRILQDLKKELKGFKTIMLNCMSLRTAQAVFPAIAQEICQEEVSRPAGKDMMRKLEKHMTAEKGPMIVLVLDEMDQLDSKGQDVLYTLFEWPWLSNSHLVLIGIANTLDLTDRILPRLQAREKCKPQLLNFPPYTRNQIVTILQDRLNQVSRDQVLDNAAVQFCARKVSAVSGDVRKALDVCRRAIEIVESDVKSQTILKPLSECKSPSEPLIPKRVGLIHISQVISEVDGNRMTLSQEGAQDSFPLQQKILVCSLMLLIRQLKIKEVTLGKLYEAYSKVCRKQQVAAVDQSECLSLSGLLEARGILGLKRNKETRLTKVFFKIEEKEIEHALKDKALIGNILATGLP
notes: human Cdc6; also called human Cdc6; source: Sf9, baculovirus; purified (anti-c-Myc 9E10 agarose, 9E10 peptide elution); also in Sf9 lysate; not shown: Myc, N-terminal, kept

Experiment [1] deals with T1, HsMCM467 complex (human, UniProt P33991 1-863; Q14566 1-821; P33993 1-719).
T1 construct: human Mcm4; human Mcm6, untagged; human Mcm7, untagged; source: Sf9 co-infected with baculoviruses for His6-2xFLAG-HsMcm4, HsMcm6 and HsMcm7; purified (Ni-NTA, then FLAG M2 agarose); copies: + +
Nature of the experiment: recruitment to DNA-coupled magnetic beads; two steps: HsORC or control buffer on pUC19-lamin-B2 DNA beads, then HsMCM467 or HsMCM2–7 with HsCdc6 and/or HsCdt1; 90 mM potassium acetate, 4 mM ATP, 37 °C, 30 min; washed with 100 mM potassium glutamate; Western blot. The following applies: both partners purified. Background: A western blot detects proteins with antibodies after separation by electrophoresis.

The target of experiment [2] is T2, FLAG-HsGeminin-His6 (wild type) (Homo sapiens (Human), UniProt O75496).
T2 chain: B2 chain
Nature of the experiment: co-immunoprecipitation of purified proteins (anti-Geminin, 0.5 M NaCl wash, Western blot).

Experiment [3] has as its target B1. Nature of the experiment: co-IP; 60 ng purified FLAG-HsCdt1 with 40 ng wild-type or mutant HsGeminin; rabbit anti-human Geminin polyclonal antibodies on protein A/G plus agarose; PBS plus 1 mg/ml BSA, 4 °C, 3 h; washed with PBS plus 0.5 M NaCl; Western blot. The settings on record: both partners purified.
Experiment [4] concerns the target T3, HsMCM2–7 complex (human | human (endogenous in 293T), UniProt P49736 1-904; P25205 1-808; P33991 1-863; P33992 1-734; Q14566 1-821; P33993 …).
T3 construct: human Mcm2, full length; Mcm3, endogenous in 293T; Mcm4, endogenous in 293T; Mcm5, endogenous in 293T; Mcm6, endogenous in 293T; Mcm7, endogenous in 293T; also called complete heterohexameric human MCM complex; copies: + + + + +
Nature of the experiment: recruitment to DNA-coupled magnetic beads; two steps: HsORC or control buffer on pUC19-lamin-B2 DNA beads, then HsMCM467 or HsMCM2–7 with HsCdc6 and/or HsCdt1; 90 mM potassium acetate, 4 mM ATP, 37 °C, 30 min; washed with 100 mM potassium glutamate; Western blot. The following applies: both partners purified.

The record followed here is PMC4215257, “Geminin Inhibits a Late Step in the Formation of Human Pre-replicative Complexes*” (The Journal of Biological Chemistry, 2014).

T1 sequence (P33991 whole entry, chain 1 of 3): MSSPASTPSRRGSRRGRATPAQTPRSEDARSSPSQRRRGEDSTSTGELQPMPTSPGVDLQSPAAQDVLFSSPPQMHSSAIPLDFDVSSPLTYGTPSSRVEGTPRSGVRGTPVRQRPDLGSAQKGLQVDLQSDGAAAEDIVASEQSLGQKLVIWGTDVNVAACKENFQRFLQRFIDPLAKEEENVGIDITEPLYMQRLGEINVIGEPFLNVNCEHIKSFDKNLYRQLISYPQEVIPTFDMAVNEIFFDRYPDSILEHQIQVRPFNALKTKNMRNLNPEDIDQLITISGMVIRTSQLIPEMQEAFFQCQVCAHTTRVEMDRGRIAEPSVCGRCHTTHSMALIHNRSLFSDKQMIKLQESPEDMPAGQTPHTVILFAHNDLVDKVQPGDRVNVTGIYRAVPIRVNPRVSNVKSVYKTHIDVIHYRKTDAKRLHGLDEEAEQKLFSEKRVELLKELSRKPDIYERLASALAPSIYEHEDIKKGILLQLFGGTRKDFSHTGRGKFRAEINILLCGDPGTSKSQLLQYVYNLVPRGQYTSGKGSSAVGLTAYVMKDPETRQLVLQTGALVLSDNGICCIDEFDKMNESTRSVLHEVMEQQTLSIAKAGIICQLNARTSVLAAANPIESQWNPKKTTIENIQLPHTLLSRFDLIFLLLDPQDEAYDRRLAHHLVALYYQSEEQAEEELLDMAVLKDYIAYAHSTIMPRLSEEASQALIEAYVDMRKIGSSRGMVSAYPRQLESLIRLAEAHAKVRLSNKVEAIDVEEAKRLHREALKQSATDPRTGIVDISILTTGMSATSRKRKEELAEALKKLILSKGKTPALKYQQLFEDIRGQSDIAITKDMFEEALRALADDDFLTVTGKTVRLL
T1 sequence (Q14566 whole entry, chain 2 of 3): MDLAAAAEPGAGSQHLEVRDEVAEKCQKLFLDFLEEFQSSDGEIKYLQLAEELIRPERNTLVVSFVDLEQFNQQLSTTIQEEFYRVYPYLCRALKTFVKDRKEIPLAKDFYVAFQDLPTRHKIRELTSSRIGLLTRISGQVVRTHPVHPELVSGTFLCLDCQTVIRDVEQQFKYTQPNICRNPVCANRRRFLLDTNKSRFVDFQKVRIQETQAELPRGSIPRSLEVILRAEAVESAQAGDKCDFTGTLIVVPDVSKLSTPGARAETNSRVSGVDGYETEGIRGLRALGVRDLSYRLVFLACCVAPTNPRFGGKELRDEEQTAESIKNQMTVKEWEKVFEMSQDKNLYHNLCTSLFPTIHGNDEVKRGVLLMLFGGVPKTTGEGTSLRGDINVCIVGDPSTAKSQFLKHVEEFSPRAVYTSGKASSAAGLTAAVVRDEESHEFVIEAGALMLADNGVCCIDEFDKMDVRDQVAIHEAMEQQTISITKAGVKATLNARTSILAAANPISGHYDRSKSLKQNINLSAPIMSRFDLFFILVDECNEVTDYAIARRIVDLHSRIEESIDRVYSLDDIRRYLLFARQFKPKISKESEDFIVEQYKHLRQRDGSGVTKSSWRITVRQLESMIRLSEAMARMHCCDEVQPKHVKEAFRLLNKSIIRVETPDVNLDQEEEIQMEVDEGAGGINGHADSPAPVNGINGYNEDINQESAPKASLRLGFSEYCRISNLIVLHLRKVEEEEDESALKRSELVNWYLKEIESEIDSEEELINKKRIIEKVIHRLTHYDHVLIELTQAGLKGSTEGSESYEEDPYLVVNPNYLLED
T1 sequence (P33993 whole entry, chain 3 of 3): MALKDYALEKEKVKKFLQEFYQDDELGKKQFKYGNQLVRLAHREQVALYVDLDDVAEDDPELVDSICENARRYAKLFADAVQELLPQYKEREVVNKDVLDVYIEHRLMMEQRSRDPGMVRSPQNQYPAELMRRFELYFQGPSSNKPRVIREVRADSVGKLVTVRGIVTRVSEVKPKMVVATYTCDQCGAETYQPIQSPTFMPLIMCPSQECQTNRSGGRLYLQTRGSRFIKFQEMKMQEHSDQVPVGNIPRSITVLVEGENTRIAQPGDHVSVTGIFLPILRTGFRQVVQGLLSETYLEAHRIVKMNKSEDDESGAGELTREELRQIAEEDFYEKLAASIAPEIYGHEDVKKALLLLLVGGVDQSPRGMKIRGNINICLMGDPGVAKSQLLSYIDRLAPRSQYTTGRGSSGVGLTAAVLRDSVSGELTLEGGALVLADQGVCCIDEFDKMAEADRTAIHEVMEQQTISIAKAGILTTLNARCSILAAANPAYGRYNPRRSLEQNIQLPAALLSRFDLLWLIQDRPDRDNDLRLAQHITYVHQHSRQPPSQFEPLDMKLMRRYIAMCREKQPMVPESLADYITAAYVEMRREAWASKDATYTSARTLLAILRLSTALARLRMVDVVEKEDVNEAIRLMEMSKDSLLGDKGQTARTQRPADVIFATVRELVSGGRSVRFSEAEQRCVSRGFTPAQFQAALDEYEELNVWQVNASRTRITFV

With B1, the binding result in experiment [1] and in experiment [2] was “binds” each time.

As for B2, the binding result in experiment [3] was “binds”.

Turning to B3, the binding result in experiment [4] and in experiment [1] was “binds” in each case.
